Reference: PMC11931385, “Structural and functional analysis of cancer-associated missense variants in the retinoblastoma protein pocket domain” (The Journal of Biological Chemistry, 2025)
No end group written: not given here. TMR = tetramethyl rhodamine dye

T1: Rb^P S474R (human, UniProt P06400 380-788, S474R)
T1 construct: also called variant 13
T1 sequence (looked up): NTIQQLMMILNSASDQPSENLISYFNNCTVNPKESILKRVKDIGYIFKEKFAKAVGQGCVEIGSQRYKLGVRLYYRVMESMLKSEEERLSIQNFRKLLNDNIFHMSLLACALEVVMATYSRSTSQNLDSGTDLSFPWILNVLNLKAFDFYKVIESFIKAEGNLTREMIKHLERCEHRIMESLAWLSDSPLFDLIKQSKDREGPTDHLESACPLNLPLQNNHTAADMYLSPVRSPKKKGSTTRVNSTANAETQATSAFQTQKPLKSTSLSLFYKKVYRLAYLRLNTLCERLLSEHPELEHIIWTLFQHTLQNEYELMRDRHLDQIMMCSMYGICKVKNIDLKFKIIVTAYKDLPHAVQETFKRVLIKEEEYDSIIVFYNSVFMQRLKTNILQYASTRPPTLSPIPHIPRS

T2: Rb^P A488V (human, UniProt P06400 380-788, A488V)
T2 construct: also called variant 14
T2 sequence (looked up): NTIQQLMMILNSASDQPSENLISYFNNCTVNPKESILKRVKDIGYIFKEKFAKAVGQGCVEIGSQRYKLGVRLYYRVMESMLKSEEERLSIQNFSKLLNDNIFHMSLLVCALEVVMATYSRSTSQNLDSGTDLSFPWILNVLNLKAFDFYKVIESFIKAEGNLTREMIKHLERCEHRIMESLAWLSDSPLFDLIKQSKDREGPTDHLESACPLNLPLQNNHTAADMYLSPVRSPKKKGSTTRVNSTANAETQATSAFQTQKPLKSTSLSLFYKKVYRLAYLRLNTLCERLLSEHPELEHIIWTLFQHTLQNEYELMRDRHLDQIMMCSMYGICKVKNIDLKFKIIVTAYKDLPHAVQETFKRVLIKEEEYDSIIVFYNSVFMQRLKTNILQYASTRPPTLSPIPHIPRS

T3: Rb^P A490S (human, UniProt P06400 380-788, A490S)
T3 construct: also called variant 15
T3 sequence (looked up): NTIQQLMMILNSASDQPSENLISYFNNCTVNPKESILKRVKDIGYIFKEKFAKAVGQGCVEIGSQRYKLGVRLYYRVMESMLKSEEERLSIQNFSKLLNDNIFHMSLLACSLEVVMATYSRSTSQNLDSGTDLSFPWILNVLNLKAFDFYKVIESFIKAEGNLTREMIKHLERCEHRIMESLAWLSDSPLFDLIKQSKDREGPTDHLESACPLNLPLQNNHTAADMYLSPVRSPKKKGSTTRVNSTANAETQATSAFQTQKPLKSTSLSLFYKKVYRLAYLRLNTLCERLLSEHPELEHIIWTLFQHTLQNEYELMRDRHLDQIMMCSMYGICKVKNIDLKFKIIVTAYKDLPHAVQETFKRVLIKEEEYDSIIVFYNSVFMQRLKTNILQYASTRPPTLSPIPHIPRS

T4: Rb^P H555Y (human, UniProt P06400 380-788, H555Y)
T4 construct: also called variant 29
T4 sequence (looked up): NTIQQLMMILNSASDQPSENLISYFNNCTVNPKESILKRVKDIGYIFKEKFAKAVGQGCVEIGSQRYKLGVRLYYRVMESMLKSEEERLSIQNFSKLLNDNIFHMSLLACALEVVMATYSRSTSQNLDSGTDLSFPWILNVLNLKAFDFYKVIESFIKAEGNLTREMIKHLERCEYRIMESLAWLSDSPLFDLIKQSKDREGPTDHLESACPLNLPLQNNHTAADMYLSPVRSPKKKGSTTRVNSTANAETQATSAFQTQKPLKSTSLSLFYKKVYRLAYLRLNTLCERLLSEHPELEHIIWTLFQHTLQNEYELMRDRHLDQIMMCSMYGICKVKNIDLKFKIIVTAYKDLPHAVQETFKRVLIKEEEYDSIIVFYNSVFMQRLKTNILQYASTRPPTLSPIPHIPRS

T5: Rb^P R621S (human, UniProt P06400 380-788, R621S)
T5 construct: also called variant 44
T5 sequence (looked up): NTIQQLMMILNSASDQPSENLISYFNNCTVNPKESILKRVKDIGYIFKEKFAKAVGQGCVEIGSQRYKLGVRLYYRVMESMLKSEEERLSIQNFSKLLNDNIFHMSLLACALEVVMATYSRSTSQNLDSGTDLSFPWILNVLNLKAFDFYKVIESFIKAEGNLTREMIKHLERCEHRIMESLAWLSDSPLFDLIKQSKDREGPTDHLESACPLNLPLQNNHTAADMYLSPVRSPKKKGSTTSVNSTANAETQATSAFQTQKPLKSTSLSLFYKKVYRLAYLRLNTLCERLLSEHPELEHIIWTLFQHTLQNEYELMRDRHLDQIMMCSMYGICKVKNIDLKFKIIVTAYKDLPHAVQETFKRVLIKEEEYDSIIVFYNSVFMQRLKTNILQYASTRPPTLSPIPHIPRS


Tests used:
Assay in all cases: fluorescence polarisation; 37 °C, after the 25 °C reading ramped over 7 min to 37 °C and 2 min incubation; unlabeled Rb^P against 1.5 nM TMR-E2F1^TD or 7.5 nM TMR-E7^LxCxE; 25 mM Tris pH 8.0, 200 mM NaCl, 1 mM DTT, 0.1% Tween-20; apparent Kd
Details in all cases: both partners purified
Rb^P S474R = target: T1, Rb^P S474R
Rb^P A488V = target: T2, Rb^P A488V
Rb^P A490S = target: T3, Rb^P A490S
Rb^P H555Y = target: T4, Rb^P H555Y
Rb^P R621S = target: T5, Rb^P R621S

| Binder | Kd (Rb^P S474R) | Kd (Rb^P A488V) | Kd (Rb^P A490S) | Kd (Rb^P H555Y) | Kd (Rb^P R621S) |
| --- | --- | --- | --- | --- | --- |
| {TMR}-GEGIRDLFDCDFGDLTPLD (also called E2F^TD; source: synthetic peptide, bought: GenScript) [TMR-E2F1^TD, peptide of the E2F1 transactivation domain] | 580 nM | 78 nM | 29 nM | 366 nM | 38 nM |
| DLYCYEQLN (also: TMR label, position not given here, source: synthetic peptide, bought: GenScript) [TMR-E7^LxCxE, LxCxE peptide of the E7 oncoprotein from HPV] | 15 nM | 19 nM | 15 nM | 32 nM | 17 nM |
